{"source": "paper PMC4395418", "about": "“The Aspartate-Less Receiver (ALR) Domains: Distribution, Structure and Function” (PLoS Pathogens, 2015)", "binders": {"B1": {"name": "RitR ALR (REC) receiver domain, Leu86 to Ala mutant (domain or fragment)", "chain": "MGKRILLLEKERNLAHFLSLELQKEQYRVDLVEEGQKALSMALQTDYDLILLNVNLGDMMAQDFAEKLSRTKPASVIMILDHWEDAQEELEVVQRFAVSYIYKPVLIENLVARISAIFRGRDFIG", "notes": "RitR, Streptococcus pneumoniae strain R800, ALR (REC) domain, amino acids Met1-Ile124, Ala substitution of Leu86; extra C-terminal glycine residue; PDB 4LZL is the wild-type parent of the same limits; also called RitRALR Leu86 mutant; source: E. coli BL21 DE3, 15N-labelled in M9 medium, purified (Ni-NTA, ULP1 cleavage, subtractive Ni-NTA); not shown: His6, N-terminal, cleaved; SUMO, N-terminal, …"}, "B2": {"name": "RitR ALR (REC) receiver domain, Leu90 to Ala mutant (domain or fragment)", "chain": "B1 chain with A86L, L90A", "notes": "RitR, Streptococcus pneumoniae strain R800, ALR (REC) domain, amino acids Met1-Ile124, Leu90 changed to Ala; extra C-terminal glycine residue; PDB 4LZL is the wild-type parent of the same limits; also called RitRALR Leu90>Ala mutant; Leu90 mutant; source: E. coli BL21 DE3, 15N-labelled in M9 medium, purified (Ni-NTA, ULP1 cleavage, subtractive Ni-NTA); not shown: His6, N-terminal, cleaved; SUMO, …"}, "B3": {"name": "RitR full-length, Leu86 to Ala Gate mutant (natural protein)", "chain": "MGKRILLLEKERNLAHFLSLELQKEQYRVDLVEEGQKALSMALQTDYDLILLNVNLGDMMAQDFAEKLSRTKPASVIMILDHWEDAQEELEVVQRFAVSYIYKPVLIENLVARISAIFRGRDFIDQHCSLMKVPRTYRNLRIDVEHHTVYRGEEMIALTRREYDLLATLMGSKKVLTREQLLESVWKYESATETNIVDVYIRYLRSKLDVKGQKSYIKTVRGVGYTMQE", "notes": "RitR, Streptococcus pneumoniae strain R800, full-length, Gate residue Leu86 changed to Ala; also called RitRFL Leu86 mutant; source: E. coli BL21(DE3) or BL21(DE3)-Star, purified (Ni2+ agarose, ULP1 cleavage, subtractive Ni2+ column); not shown: His6, N-terminal, cleaved; SUMO, N-terminal, cleaved"}, "B4": {"name": "RitR full-length, Leu86/Val93 double mutant (natural protein)", "chain": "B3 chain with V93A", "notes": "RitR, Streptococcus pneumoniae strain R800, full-length, Val93 mutant combined with a Leu86 mutation (Ala); also called RitRFL Leu86/Val93 double mutant; source: E. coli BL21(DE3) or BL21(DE3)-Star, purified (Ni2+ agarose, ULP1 cleavage, subtractive Ni2+ column); not shown: His6, N-terminal, cleaved; SUMO, N-terminal, cleaved"}, "B5": {"name": "RitR full-length, Leu90 to Ala Gate mutant (natural protein)", "chain": "B3 chain with A86L, L90A", "notes": "RitR, Streptococcus pneumoniae strain R800, full-length, Gate residue Leu90 changed to Ala; also called RitRFL Leu90 mutant; source: E. coli BL21(DE3) or BL21(DE3)-Star, purified (Ni2+ agarose, ULP1 cleavage, subtractive Ni2+ column); not shown: His6, N-terminal, cleaved; SUMO, N-terminal, cleaved"}, "B6": {"name": "RitR full-length, Val93 to Ala Gate mutant (natural protein)", "chain": "B3 chain with A86L, V93A", "notes": "RitR, Streptococcus pneumoniae strain R800, full-length, Ala substitution of Gate residue Val93; also called RitRFL Val93 mutant; source: E. coli BL21(DE3) or BL21(DE3)-Star, purified (Ni2+ agarose, ULP1 cleavage, subtractive Ni2+ column); not shown: His6, N-terminal, cleaved; SUMO, N-terminal, cleaved"}, "B7": {"name": "BS2 33-mer (dsDNA)", "DNA 1": "ATTTTATTGACAGATTAGAAAAATAATGTTACA", "DNA 2": "TGTAACATTATTTTTCTAATCTGTCAATAAAAT"}}, "key": {"[1]": {"molecular_target": "the molecule itself", "experiment": "SEC; purified 15N-labelled RitRALR (ALR domain only) wild-type and Ala mutants; oligomeric state"}, "[2]": {"molecular_target": "the molecule itself", "experiment": "SEC; RitRFL wild-type and mutants; Agilent 1220 HPLC, BioBasic SEC-300A column, 50 mM TRIS pH 8.0, 150 mM NaCl, 10 mM DTT; proteins pre-treated with 10 mM DTT; 0.5 ml/min, ambient temperature"}, "RitR FL L90A": {"molecular_target": "RitR FL L90A (Streptococcus pneumoniae R800, UniProt A0ACD7PPZ9 1-229, L90A)", "experiment": "EMSA; 20 mM HEPES pH 7.2, 5 mM MgCl2, 1 mM CaCl2, 0.1 mM EDTA, 10 mM DTT, 10% glycerol, 0.5 uM DNA, 800 ng poly(dI-dC) in 20 ul, room temperature 10 min; 4% native TAE PAGE", "conditions": "protein: recombinant; tags: His6-SUMO removed by ULP1; chain copies: 2; label: 5' HEX on strand 1; blunt"}, "RitR FL L86A": {"molecular_target": "RitR FL L86A (Streptococcus pneumoniae R800, UniProt A0ACD7PPZ9 1-229, L86A)", "experiment": "EMSA; 20 mM HEPES pH 7.2, 5 mM MgCl2, 1 mM CaCl2, 0.1 mM EDTA, 10 mM DTT, 10% glycerol, 0.5 uM DNA, 800 ng poly(dI-dC) in 20 ul, room temperature 10 min; 4% native TAE PAGE", "conditions": "protein: recombinant; tags: His6-SUMO removed by ULP1; chain copies: 2; label: 5' HEX on strand 1; blunt"}, "RitR FL F96G": {"molecular_target": "RitR FL F96G (Streptococcus pneumoniae R800, UniProt A0ACD7PPZ9 1-229, F96G)", "experiment": "EMSA; 20 mM HEPES pH 7.2, 5 mM MgCl2, 1 mM CaCl2, 0.1 mM EDTA, 10 mM DTT, 10% glycerol, 0.5 uM DNA, 800 ng poly(dI-dC) in 20 ul, room temperature 10 min; 4% native TAE PAGE", "conditions": "protein: recombinant; tags: His6-SUMO removed by ULP1; chain copies: 2; label: 5' HEX on strand 1; blunt"}, "RitR FL L86A/V93A": {"molecular_target": "RitR FL L86A/V93A (Streptococcus pneumoniae R800, UniProt A0ACD7PPZ9 1-229, L86A;V93A)", "experiment": "EMSA; 20 mM HEPES pH 7.2, 5 mM MgCl2, 1 mM CaCl2, 0.1 mM EDTA, 10 mM DTT, 10% glycerol, 0.5 uM DNA, 800 ng poly(dI-dC) in 20 ul, room temperature 10 min; 4% native TAE PAGE", "conditions": "protein: recombinant; tags: His6-SUMO removed by ULP1; chain copies: 2; label: 5' HEX on strand 1; blunt"}, "RitR FL wild-type": {"molecular_target": "RitR FL wild-type (Streptococcus pneumoniae R800, UniProt A0ACD7PPZ9 1-229)", "experiment": "EMSA; up to 6.6 uM protein; 20 mM HEPES pH 7.2, 5 mM MgCl2, 1 mM CaCl2, 0.1 mM EDTA, 10 mM DTT, 10% glycerol, 0.5 uM DNA, 800 ng poly(dI-dC) in 20 ul, room temperature 10 min; 4% native TAE PAGE", "conditions": "protein: recombinant; tags: His6-SUMO removed by ULP1; chain copies: 2; label: 5' HEX on strand 1; blunt"}, "RitR FL Y100A": {"molecular_target": "RitR FL Y100A (Streptococcus pneumoniae R800, UniProt A0ACD7PPZ9 1-229, Y100A)", "experiment": "EMSA; binding seen at 0.22 uM protein; 20 mM HEPES pH 7.2, 5 mM MgCl2, 1 mM CaCl2, 0.1 mM EDTA, 10 mM DTT, 10% glycerol, 0.5 uM DNA, 800 ng poly(dI-dC) in 20 ul, room temperature 10 min; 4% native TAE PAGE", "conditions": "protein: recombinant; tags: His6-SUMO removed by ULP1; chain copies: 2; label: 5' HEX on strand 1; blunt"}, "RitR FL D81A": {"molecular_target": "RitR FL D81A (Streptococcus pneumoniae R800, UniProt A0ACD7PPZ9 1-229, D81A)", "experiment": "EMSA; binding seen at 0.22 uM protein; 20 mM HEPES pH 7.2, 5 mM MgCl2, 1 mM CaCl2, 0.1 mM EDTA, 10 mM DTT, 10% glycerol, 0.5 uM DNA, 800 ng poly(dI-dC) in 20 ul, room temperature 10 min; 4% native TAE PAGE", "conditions": "protein: recombinant; tags: His6-SUMO removed by ULP1; chain copies: 2; label: 5' HEX on strand 1; blunt"}}, "note": "Substitutions are numbered along the chain they refer to.", "data": [{"binder": "B1", "values": [{"measurement": "stoichiometry N", "setting": "[1]", "result": 2}]}, {"binder": "B2", "values": [{"measurement": "stoichiometry N", "setting": "[1]", "result": 2}]}, {"binder": "B3", "values": [{"measurement": "stoichiometry N", "setting": "[2]", "result": 2}]}, {"binder": "B4", "values": [{"measurement": "stoichiometry N", "setting": "[2]", "result": 2}]}, {"binder": "B5", "values": [{"measurement": "stoichiometry N", "setting": "[2]", "result": 2}]}, {"binder": "B6", "values": [{"measurement": "stoichiometry N", "setting": "[2]", "result": 2}]}, {"binder": "B7", "values": [{"measurement": "binding result", "setting": "RitR FL L90A", "result": "binds"}, {"measurement": "binding result", "setting": "RitR FL L86A", "result": "binds"}, {"measurement": "binding result", "setting": "RitR FL F96G", "result": "no binding"}, {"measurement": "binding result", "setting": "RitR FL L86A/V93A", "result": "binds"}, {"measurement": "binding result", "setting": "RitR FL wild-type", "result": "no binding"}, {"measurement": "binding result", "setting": "RitR FL Y100A", "result": "binds"}, {"measurement": "binding result", "setting": "RitR FL D81A", "result": "binds"}]}]}
